From patent US20180127503A1 (EUREKA THERAPEUTICS, published 2018)
No end group written: not given here. *: point of attachment. Biotin = O=C1N[C@H]2[C@H](CS[C@H]2CCCCC(=O)*)N1

T1: biotin-SGSG-KTITATGVLFVRLGP ROR2 array peptide (human)
T1 construct: Peptide of the overlapping ROR2 peptide array, immobilised on streptavidin plates
T1 peptide: Biotin-SGSGKTITATGVLFVRLGP

B1: ROR2-241 full length human IgG1 antibody (antibody, V domains shown)
VH: EVQLVQSGAEVKKPGASVKVSCKASGYTFTNYYIHWVRQAPGQGLEWMGIINPTSGRTRYAQRFQGRVTMTRDTSTNTVYMDLSSLRSEDTAMYYCARSGYYWGVNGDQWGQGTLVTVSS
VL: SYELTQPLSVSVALGQTARITCGGNNIGSKNVHWYQQKPGQAPVLVIYRDSNRPSGIPERFSGSNSGNTATLTISRAQAGDEADYYCQVWDSSIVVFGGGTKLTVLG
B2: ROR2-240 full length human IgG1 antibody (antibody, V domains shown)
VH: QITLKESGPELVKPTQTLTLTCTFSGFSLSTSGMSVSWIRQPPGKALEWLARIDWDDDKYYSTSLKTRLTISKDTSKNQVVLTMTNTDPVDTATYYCARGFYLAYGSYDSWGQGTLVTVSS
VL: QSALTQPASVSGSPGQSITISCTGTSGDVGGYNYVSWYQHHPGKAPKLIIYDVNKRPSGFSDRFSGSKSGNTASLTISGLQAEDEADYYCSSYTSTSTVFGGGTKLTVLG
notes: also called clone #240 IgG1
B3: ROR2-23 full length human IgG1 antibody (antibody, V domains shown)
VH: EVQLVQSGAEVKKPGESLKISCQGSGYRFSKYWIGWVRQMPGKGLEWMGIIYPGDSDTRYSPSFQGQVTISADKSISTAYLQWSSLKASDTAMYYCARSFSSFIYDYWGQGTLVTVSS
VL: ETTLTQSPGTLSVSPGERATLSCRASQSVSSNLAWYQQKRGQAPRLLIYGASTRATGIPVRFSGSGSGTEFTLTISRLEPEDFAVYYCQQYGRSPLTFGGGTKVDIKR
notes: The light chain of clone 023 is labelled kappa; also called clone #23; clone #023 IgG1
B4: ROR2-90 full length human IgG1 antibody (antibody, V domains shown)
VH: EVQLVESGPGLVKPSQTLSLTCTVSGGSISSGGYYWSWIRQHPGKGLEWIGYIYYSGSTYYNPSLKSRVTISVDTSKNQFSLKLSSVTAADTAMYYCARGGLYWTYSQDVWGQGTLVTVSS
VL: QPVLTQPPSASGTPGQRVTISCSGSSSNIGSDYVSWYQQLPGTAPKLLIYRNDQRPSGVPDRFSGSKSGTSASLAISGLRSEDEADYYCVAWDDSLSGYVFGSGTKVTVLG
notes: also called clone #90; antibody #90
B5: ROR2-27 full length human IgG1 antibody (antibody, V domains shown)
VH: QVQLVESGAEVKKPGESLKISCKASGYSFSNYWIGWVRQMPGKGLEWMGIIYPDDSDTRYSPSFQGQVTISADKSISTAYLQWYSLKVADTAKYYCVRPRGAFDIWGQGTTVTVSS
VL: QSVLTQPPSVSGAPGQRVTISCTGSSSNIGAGHAVHWYQQLPGTAPKLLIYDNANRPSGVPDRFSGSQSGTSASLAITGLQTGDEADYYCGTWDDSPSAYVFGTGTKVTVLG
notes: also called clone #27; clone #027 IgG1

Biological target: T2, human ROR2 expressed on the cell surface (human, UniProt Q01974 34-943)
T2 construct: Endogenous ROR2 of human tumour cell lines; also called cell surface ROR2; ROR2 on tumour cell lines
Assay: flow cytometry, NCI-H2052 cells (mesothelioma)
Parameters: reference not given here
Procedure: (§1) Human tumour cell lines were authenticated using short tandem repeat (STR) analysis. They were cultured in RPMI1640 (Cellgro) supplemented with 10% fetal bovine serum (FBS, Life Technologies) at 37° C. in a 5% CO₂ humidified incubator. They were harvested, washed in PBS and reacted with ROR2-IgG at 1 ug/10⁶ tumour cells on ice for an hour. #901-IgG was used as a negative control at the same dose. After washing, a secondary PE-conjugated goat anti-human IgG, Fcγ fragment specific (1:100, Jackson ImmunoResearch) was added for another 30 min incubation. Staining was analyzed on a FACSCalibur (BD Biosciences). ROR2 (full length) antibody binding towards multiple cancer cell lines were compared with Rituxan and Herceptin antibodies. The cancer cell lines were derived from breast cancer, colorectal cancer, mesothelioma, hepatocellular carcinoma, ovarian cancer, osteosarcoma, neuroblastoma, etc. ROR2 #90 antibody could recognize most of the tumour cells tested, and in some cases, the binding intensity was higher than Herceptin (see Tables 8 to 10).

T2 sequence (Q01974 34-943 limits assumed): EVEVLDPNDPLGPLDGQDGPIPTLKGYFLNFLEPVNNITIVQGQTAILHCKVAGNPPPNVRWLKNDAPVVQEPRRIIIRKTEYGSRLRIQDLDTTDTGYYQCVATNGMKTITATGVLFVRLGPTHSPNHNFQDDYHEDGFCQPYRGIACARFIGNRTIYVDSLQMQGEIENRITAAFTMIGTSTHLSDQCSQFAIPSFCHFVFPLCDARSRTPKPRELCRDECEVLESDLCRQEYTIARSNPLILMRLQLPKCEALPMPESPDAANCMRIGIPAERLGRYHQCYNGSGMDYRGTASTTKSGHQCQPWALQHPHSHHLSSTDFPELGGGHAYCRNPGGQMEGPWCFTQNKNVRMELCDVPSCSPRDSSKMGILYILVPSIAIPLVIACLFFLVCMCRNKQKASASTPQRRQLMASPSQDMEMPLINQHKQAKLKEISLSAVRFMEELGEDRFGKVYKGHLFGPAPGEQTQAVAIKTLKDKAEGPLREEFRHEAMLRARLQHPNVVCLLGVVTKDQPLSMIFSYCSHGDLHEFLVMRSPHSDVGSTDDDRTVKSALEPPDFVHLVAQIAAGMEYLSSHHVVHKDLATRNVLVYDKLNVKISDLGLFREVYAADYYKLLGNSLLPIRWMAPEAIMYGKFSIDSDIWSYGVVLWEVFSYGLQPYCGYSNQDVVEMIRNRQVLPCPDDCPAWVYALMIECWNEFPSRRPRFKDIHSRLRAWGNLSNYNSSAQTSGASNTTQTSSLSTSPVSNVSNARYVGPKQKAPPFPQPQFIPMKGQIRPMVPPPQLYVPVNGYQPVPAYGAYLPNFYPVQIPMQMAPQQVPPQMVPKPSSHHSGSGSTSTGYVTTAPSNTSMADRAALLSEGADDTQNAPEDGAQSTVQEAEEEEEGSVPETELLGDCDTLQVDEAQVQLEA

Question: For B1, which binding intensity is on record?
Answer: 43

Question: For B2, which binding intensity is on record?
Answer: 8

Question: For B3, which binding intensity is on record?
Answer: 65

Question: Which binding intensity does the source give for B4 here?
Answer: 101

Question: For B5, which binding intensity is on record?
Answer: 46

Biological target: T2, human ROR2 expressed on the cell surface
Assay: flow cytometry, HTB63 cells (melanoma)
Parameters: unit not given here
Procedure: as §1

Question: For B1, which binding intensity is on record?
Answer: 16

Question: B2 was tested. Which binding intensity did it give?
Answer: 5

Question: For B3, which binding intensity is on record?
Answer: 16

Question: B4 was tested. Which binding intensity did it give?
Answer: 27

Question: Which binding intensity does the source give for B5 here?
Answer: 8

Biological target: T2, human ROR2 expressed on the cell surface
Assay: flow cytometry, SKHEP-1 cells (HCC)
Parameters: unit not given here
Procedure: as §1

Question: With B1 as the binder, how does the binding intensity read?
Answer: 53

Question: For B2, which binding intensity is on record?
Answer: 21

Question: B3 was tested. Which binding intensity did it give?
Answer: 42

Question: For B4, which binding intensity is on record?
Answer: 74

Question: How did the binding intensity turn out when B5 was run?
Answer: 23

Biological target: T2, human ROR2 expressed on the cell surface
Assay: flow cytometry, OCM1 cells (melanoma)
Parameters: unit not given here
Procedure: as §1

Question: B1 was tested. Which binding intensity did it give?
Answer: 19

Question: With B2 as the binder, how does the binding intensity read?
Answer: 3

Question: How did the binding intensity turn out when B3 was run?
Answer: 10

Question: For B4, which binding intensity is on record?
Answer: 18

Question: How did the binding intensity turn out when B5 was run?
Answer: 6

Biological target: T2, human ROR2 expressed on the cell surface
Assay: flow cytometry, SKMEL28 cells (melanoma)
Parameters: reference not given here
Procedure: as §1

Question: For B1, which binding intensity is on record?
Answer: 20

Question: With B2 as the binder, how does the binding intensity read?
Answer: 4

Question: Which binding intensity does the source give for B3 here?
Answer: 20

Question: For B4, which binding intensity is on record?
Answer: 26

Question: How did the binding intensity turn out when B5 was run?
Answer: 8

Biological target: T2, human ROR2 expressed on the cell surface
Assay: flow cytometry, LAN-1 cells (neuroblastoma)
Parameters: unit not given here
Procedure: as §1

Question: With B1 as the binder, how does the binding intensity read?
Answer: 68

Question: For B2, which binding intensity is on record?
Answer: 37

Question: With B3 as the binder, how does the binding intensity read?
Answer: 34

Question: Which binding intensity does the source give for B4 here?
Answer: 48

Question: For B5, which binding intensity is on record?
Answer: 28

Biological target: T2, human ROR2 expressed on the cell surface
Assay: flow cytometry, OVCAR3 cells (ovarian CA)
Parameters: unit not given here
Procedure: as §1

Question: How did the binding intensity turn out when B1 was run?
Answer: 22

Question: Which binding intensity does the source give for B2 here?
Answer: 4

Question: For B3, which binding intensity is on record?
Answer: 35

Question: Which binding intensity does the source give for B4 here?
Answer: 48

Question: For B5, which binding intensity is on record?
Answer: 7

Biological target: T2, human ROR2 expressed on the cell surface
Assay: flow cytometry, HTB27 cells (breast CA)
Parameters: unit not given here
Procedure: as §1

Question: How did the binding intensity turn out when B1 was run?
Answer: 24

Question: For B2, which binding intensity is on record?
Answer: 7

Question: Which binding intensity does the source give for B3 here?
Answer: 58

Question: How did the binding intensity turn out when B4 was run?
Answer: 125

Question: Which binding intensity does the source give for B5 here?
Answer: 11

Biological target: T2, human ROR2 expressed on the cell surface
Assay: flow cytometry, HTB37-Caco2 cells (CRC)
Parameters: unit not given here
Procedure: as §1

Question: Which binding intensity does the source give for B1 here?
Answer: 24

Question: Which binding intensity does the source give for B2 here?
Answer: 6

Question: B3 was tested. Which binding intensity did it give?
Answer: 37

Question: How did the binding intensity turn out when B4 was run?
Answer: 91

Question: How did the binding intensity turn out when B5 was run?
Answer: 13

Biological target: T2, human ROR2 expressed on the cell surface
Assay: flow cytometry, COLO 205 cells (CRC)
Parameters: unit not given here
Procedure: as §1

Question: With B1 as the binder, how does the binding intensity read?
Answer: 24

Question: How did the binding intensity turn out when B2 was run?
Answer: 4

Question: How did the binding intensity turn out when B3 was run?
Answer: 26

Question: Which binding intensity does the source give for B4 here?
Answer: 44

Question: Which binding intensity does the source give for B5 here?
Answer: 7

Biological target: T1, biotin-SGSG-KTITATGVLFVRLGP ROR2 array …
Assay: ELISA on biotinylated ROR2 peptide array
Procedure: To better understand the structural basis of the ROR2-specific antibody as a drug candidate, a standard epitope mapping was performed by ELISA against a ROR2 peptide array. The peptide array covers the whole length of the ROR2 protein through 96 overlapping peptides ([…] each with 4 amino acids worth of space between them). The peptides were biotinlyated at the N-terminal to immobilize them onto streptavidin ELISA plates. A spacer (SGSG) was used to provide flexibility. The space was inserted at the N-terminal biotin-SGSG-15 amino acids. ELISA assays were performed with the full length ROR2 antibodies as the primary antibody and an anti-human Fc AP-conjugated antibody was used for detection. […] FIG. 12 indicates the epitope position in ROR2 primary structure. This sequence is not shared by ROR1 and not found in human proteins by PBLAST.

Question: Does B4 bind?
Answer: binds

Biological target: T2, human ROR2 expressed on the cell surface
Assay: flow cytometry, CHP100 cells (EW/PNET)
Parameters: unit not given here
Procedure: as §1

Question: With B1 as the binder, how does the binding intensity read?
Answer: 16

Question: Which binding intensity does the source give for B2 here?
Answer: 7

Question: Which binding intensity does the source give for B3 here?
Answer: 30

Question: Which binding intensity does the source give for B4 here?
Answer: 57

Question: How did the binding intensity turn out when B5 was run?
Answer: 18

Biological target: T2, human ROR2 expressed on the cell surface
Assay: flow cytometry, SKBR3 cells (breast CA)
Parameters: reference not given here
Procedure: as §1

Question: How did the binding intensity turn out when B1 was run?
Answer: 27

Question: How did the binding intensity turn out when B2 was run?
Answer: 5

Question: B3 was tested. Which binding intensity did it give?
Answer: 48

Question: B4 was tested. Which binding intensity did it give?
Answer: 98

Question: B5 was tested. Which binding intensity did it give?
Answer: 15

Biological target: T2, human ROR2 expressed on the cell surface
Assay: flow cytometry, SKOV3 cells (ovarian CA)
Parameters: unit not given here
Procedure: as §1

Question: With B1 as the binder, how does the binding intensity read?
Answer: 42

Question: For B2, which binding intensity is on record?
Answer: 5

Question: For B3, which binding intensity is on record?
Answer: 116

Question: B4 was tested. Which binding intensity did it give?
Answer: 246

Question: With B5 as the binder, how does the binding intensity read?
Answer: 36

Biological target: T2, human ROR2 expressed on the cell surface
Assay: flow cytometry, HTB26 (MDA-MB-231) cells (breast CA)
Parameters: unit not given here
Procedure: as §1

Question: For B1, which binding intensity is on record?
Answer: 23

Question: With B2 as the binder, how does the binding intensity read?
Answer: 4

Question: With B3 as the binder, how does the binding intensity read?
Answer: 11

Question: B4 was tested. Which binding intensity did it give?
Answer: 19

Question: How did the binding intensity turn out when B5 was run?
Answer: 7
